A value given as a limit tells only on which side of the number the result lay.

In assay [1] the target is recombinant human KLK5 (human) (UniProt Q9Y337). The assay is described as follows: Kiapp assay curve, 0.500 nM KLK5, Z-VPR-pNA.
Assay [2] has the same target. Nature of the assay: pro-KLK7 coupled assay, 5 nM KLK5.
Assay [3] shares this target. Nature of the assay: Kiapp as the y-intercept of the line of IC50 (nM) versus KLK5 (nM), Z-VPR-pNA.
Assay [4] has the same target. The assay is described as follows: Kiapp assay curve, 0.250 nM KLK5, Z-VPR-pNA.
Assay [5] has the same target. Nature of the assay: pro-KLK1 LC/MS assay, 0.5 nM KLK5.
For assay [6] the target is unchanged. Nature of the assay: pro-KLK1 LC/MS assay, 0.5 nM KLK5, 300 nM pro-KLK1; single value in the box; unit inferred, nM.
Assay [7] has the same target. The assay is described as follows: pro-KLK1 coupled assay, 0.5 nM KLK5.
For assay [8] the target is unchanged. The assay is described as follows: pro-KLK7 LC/MS assay, 5 nM KLK5, 15 nM pro-KLK7; box prints neither IC50 nor a unit, IC50 in nM per text.
Assay [9] has the same target. Nature of the assay: pro-KLK7 LC/MS assay, 5 nM KLK5.
Assay [10] has the same target. The assay is described as follows: Kiapp, KLK5 0.5-0.0625 nM, Z-VPR-pNA.
Assay [11] shares this target. The assay is described as follows: KLK5 direct activity assay, 5 nM KLK5, Boc-VPR-AMC.
Assay [12] shares this target. The assay is described as follows: SPR BIAcore T200, antibody captured by anti-human Fc, human KLK5 as analyte, 37 C. For orientation: SPR reads the build-up and loss of mass on a sensor chip optically.
Assay [13] shares this target. Nature of the assay: Kiapp assay curve, 0.125 nM KLK5, Z-VPR-pNA.
Assay [14] shares this target. Nature of the assay: pro-KLK1 coupled assay, 0.5 nM KLK5, 31.25 nM pro-KLK1, PFR-AMC.
Assay [15] shares this target. Nature of the assay: direct activity assay, 5 nM KLK5, Boc-VPR-AMC.
The target is the same in assay [16]. The assay is described as follows: array SPR imaging (IBIS MX96), antibody amine-coupled, human KLK5 injected 0-300 nM, 25 C.
For assay [17] the target is unchanged. The assay is described as follows: cell-based or functional assay.
The target of assay [18] is recombinant human KLK5 (human), Q9Y337. Nature of the assay: cell-based or functional assay.
Sequence of recombinant human KLK5 (human), Q9Y337 (Q9Y337 67-293): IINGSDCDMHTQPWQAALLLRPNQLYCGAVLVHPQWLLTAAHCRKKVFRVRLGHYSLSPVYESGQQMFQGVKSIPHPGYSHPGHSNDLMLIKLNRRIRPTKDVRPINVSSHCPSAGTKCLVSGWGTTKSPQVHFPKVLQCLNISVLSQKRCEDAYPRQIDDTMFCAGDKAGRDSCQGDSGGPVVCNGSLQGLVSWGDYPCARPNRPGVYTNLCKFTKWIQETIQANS

Sequence of recombinant human KLK5 (human) (Q9Y337 67-293): as above

B1: 3-3F5 (antibody, V domains shown)
VH: QSVKESEGGLFKPTDTLTLTCTVSGFSLNDYGVSWVRQAPGNGLEWIGAIGSSGVAWYANWAKGRSTITRNTNLNTVTLKMASLTAADTATYFCARDRDYGYRADDATSGMDLWGPGTLVTVSS
VL: AYDMTQTPASVEAAVGGTVTIKCQASESIGNALAWYQQKPGQPPKLLIYDASDLASGVPSRFKGSGSGTQFTLTISGVECADAATYYCQQGDSHNNVDNIFGGGTEVVVK
B1: the IC50 (read off the curve) is 0.1 nM in [1]; 0.07 nM in assay [4]; 1 to 2 nM in assay [11]; 0.04 nM in [13]; 0.1 to 0.2 nM in assay [14]. The concentration for half-maximal inhibition (IC50) in [2] was 1.53 nM; in [5], 0.15 nM; in assay [6], 0.152 nM; in [7], 0.14 nM; in assay [8], 1.44 nM; in assay [9], 1.44 nM. Also, the IC50 in [15] amounted to 1.32 nM. For the same molecule, the figures for the Ki in assay [3] and in assay [10] were 0.0081 nM and below 0.01 nM, respectively. For the same molecule, the dissociation constant (Kd) in assay [12] is below 0.001 nM. Besides, in assay [12], the koff is below 1e-05 s⁻¹. Moreover, the kon in assay [12] is 2.93e+07 M⁻¹ s⁻¹.

B2: 8E11 (antibody, V domains shown)
VH: QEQLEESGGDLVKPEGSLTLTCTASGFSFSSSYWICWVRQAPGKGLEWIACVYGLDVNIYYASWTKGRFTISKTSSTTVTLQMTSLTAADTATYFCARGGGSADFGFDLWGPGTLVTVSS
VL: DVVMTQTASPVSAAVGGTVTIKCQASENIYSLLAWYQQKPGQPPKVLIYDASDLASGVPSRFKGSGSGTQFTLTISDLECADAATYYCQATAYGSSGNAFGGGTEVVVK
Turning to B2, in [16], the off-rate constant (koff) was 0.000202 s⁻¹. In assay [17], the inhibition of human KLK5 (screening) is below 90%.

B3: 14E12 (antibody, V domains shown)
VH: EVQLVESGGGLVRPGRSLRLSCAASGFTFSDYYMAWVRQAPTKGLEWVASISYDGDTTYYRDSVKGRFTISRDNARSSLYLQMDSLRSDDTANYFCTTDGTIPAGSWFAYWGQGTLVTVSS
VL: DIQMTQSPASLSASLGETVTIECLASKNIYRNLAWYQQKPGKSPQFLISDASRLQDGVPSRFTGSDSGSQYSLKINSLQSEDVATYFCQQYHDYPYTFGAGTKLELK
Consider B3, for which, in assay [16], the koff was 0.000414 s⁻¹. Further, the inhibition of human KLK5 (screening) in assay [17] is below 90%.

B4: 14C8 (antibody, V domains shown)
VH: EVQLVESGGGLVQPGRSLKLSCTASGFTFSDYNMAWVRQAPKGGLEWVTTISYDAGRTYYRDSVKGRFTISRDNAKRTLSLQMDSLRSEDTATYYCATGIFNYGTDYFDYWGQGVMVTVSS
VL: DIQMTQSPASLSASLGETVTIQCRASEDIYSGLAWYQQKPGKSPQLLIYGATTLHDGVPSRFSGSGSGTQYSLKISSMHSEDEGIYFCHQGLSFPYTFGAGTKLELK
Take B4: the koff in [16] is 0.000376 s⁻¹. Further, the inhibition of human KLK5 (screening) in [17] was below 90%.

B5: 12B3 (antibody, V domains shown)
VH: QSLEESGGGLVKPGGTLTLTCKASGIDFNGGGIYWVRQAPGKGLEWIASIYPDHGSVDYANWVNGRFTISLDNAQNTVFLQLTSLTVADTATYFCARESGGSYYDLWGPGTLVTVSS
VL: AYDMTQTPASVEVAVGGTVTIKCQASQSISTYLAWYQQKPGQRPNLLIYKTSTLASGVPSRFRGSGSGTQFTLTISGVECADAATYYCQQGYSGSSVENTFGGGTEVVVK
On to B5, for which, in [18], the inhibition of human KLK5 (screening) is below 50%.

B6: 1D10 (antibody, V domains shown)
VH: QSLEESGGGLVKPGGTLTLTCTASGFDFNGGGIYWVRQAPGKGLEWIAYIYPDHGSADYATWVNGRFTISLDNAQNTVFLQMTSLTVADTATYFCARETGGSWYDLWGPGTLVTVSS
VL: AYDMTQTPVSVEAAVGGTVTIKCQASQSISSYLAWYQQKPGQPPKLLIYKASTLASGVSSRFKGSGSGTEFTLTISDLECADAATYYCQQGYSGSNVENTFGGGTEVVVK
Consider B6, for which the inhibition of human KLK5 (screening) in assay [18] was below 50%.

For orientation: IC50 means the midpoint of a concentration-inhibition curve. What is called Kd is the constant that tells how readily two partners part at equilibrium. Usually koff stands for the rate constant with which the complex falls apart. Broadly, the kon is a measure of how fast the partners come together.

The record behind these values is US20200040103A1.
